We go through four molecules from patent US20240076386A1 (Pfizer, published 2024).

Experiment [1] concerns the target T1, cynomolgus monkey E-selectin extracellular domain with 10 His purification tail (cynomolgus monkey, UniProt P16581 22-554 (human entry)).
T1 construct: also called cynomolgus E-selectin; truncated cynomolgus monkey E-selectin
T1 chain: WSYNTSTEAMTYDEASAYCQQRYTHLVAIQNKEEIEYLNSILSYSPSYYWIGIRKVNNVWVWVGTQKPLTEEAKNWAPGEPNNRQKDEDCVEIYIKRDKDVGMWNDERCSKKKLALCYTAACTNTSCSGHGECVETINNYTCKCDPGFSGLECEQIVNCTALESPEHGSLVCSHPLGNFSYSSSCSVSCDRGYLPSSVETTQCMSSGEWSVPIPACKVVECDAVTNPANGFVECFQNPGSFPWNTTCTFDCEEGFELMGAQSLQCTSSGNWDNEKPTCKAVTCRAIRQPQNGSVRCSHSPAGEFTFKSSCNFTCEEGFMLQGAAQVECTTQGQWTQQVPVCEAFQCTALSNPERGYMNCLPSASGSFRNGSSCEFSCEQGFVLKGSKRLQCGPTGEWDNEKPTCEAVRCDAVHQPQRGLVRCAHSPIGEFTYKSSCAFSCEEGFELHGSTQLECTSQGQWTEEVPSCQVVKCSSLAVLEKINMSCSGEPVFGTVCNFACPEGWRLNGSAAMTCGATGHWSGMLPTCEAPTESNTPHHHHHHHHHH
As to the kind of experiment: SPR, antibody captured, E-selectin analyte. The method, then:
(§1) All flow cells were blocked with 1M Ethanolamine-HCl (ETH) for 7 minutes at 10 μL/minute. Final immobilization level of the capture antibody was approximately 10,000 resonance units (RU). The running buffer for immobilization and kinetics was HBS-EP+(10 mM 4-(2-hydroxyethyl)-1-piperazineethanesulfonic acid (HEPES) pH 7.4, 150 mM sodium chloride, 3 mM ethylenediaminetetraacetic acid (EDTA), 0.05% (v/v) Tween-20).
(§2) To characterize binding of antibodies to human, cynomolgus monkey, and mouse E-selectin, an antibody was diluted to 0.5 μg/mL in HBS-EP+ and captured by the anti-human IgG immobilized on flow cells 2, 3 and 4 for 30 seconds to 1 minute at a flow rate of 10 μL/minute to achieve a capture level of 70 to 300 RU. Flow cell 1 was used as a reference surface. […] HBS-EP+ buffer cycles collected for each captured antibody were used for double-referencing (Myszka D G. J. Mol. Recognition 1999; 12(5):279-84). At the end of each cycle, the entire anti-IgG surface was regenerated by a 30 second pulse of 3 M MgCl₂ and a 30 second pulse of ionic buffer (1.83 M MgCl₂, 0.92 M Urea, 1.83 M Guanidine HCl, pH 7.4) (Andersson K. Analy. Chem. 1999; 71(13): 2475-81). Kinetic assays were conducted at 25° C. at a collection rate of 10 Hertz (Hz) on a BIAcore™ T200 instrument (GE Healthcare). Rate constants and affinities were determined by fitting the data to a 1:1 binding model in BIAcore™ T200 Evaluation software version 3.0 (GE Healthcare).
(§3) This was done by first binding the antibody to immobilized anti-human IgG. After antibody capture, dilutions of the E-selectin proteins were flowed over and the association rate constant (ka), disassociation rate constant (kd), t½, and KD values were determined for binding to human and cynomolgus (Table 26).

Experiment [2] concerns the target T2, human E-selectin extracellular domain with 10 His purification tail (human, UniProt P16581 22-556).
T2 construct: also called soluable human E-selectin extracellular domain; rhE-Selectin
T2 sequence: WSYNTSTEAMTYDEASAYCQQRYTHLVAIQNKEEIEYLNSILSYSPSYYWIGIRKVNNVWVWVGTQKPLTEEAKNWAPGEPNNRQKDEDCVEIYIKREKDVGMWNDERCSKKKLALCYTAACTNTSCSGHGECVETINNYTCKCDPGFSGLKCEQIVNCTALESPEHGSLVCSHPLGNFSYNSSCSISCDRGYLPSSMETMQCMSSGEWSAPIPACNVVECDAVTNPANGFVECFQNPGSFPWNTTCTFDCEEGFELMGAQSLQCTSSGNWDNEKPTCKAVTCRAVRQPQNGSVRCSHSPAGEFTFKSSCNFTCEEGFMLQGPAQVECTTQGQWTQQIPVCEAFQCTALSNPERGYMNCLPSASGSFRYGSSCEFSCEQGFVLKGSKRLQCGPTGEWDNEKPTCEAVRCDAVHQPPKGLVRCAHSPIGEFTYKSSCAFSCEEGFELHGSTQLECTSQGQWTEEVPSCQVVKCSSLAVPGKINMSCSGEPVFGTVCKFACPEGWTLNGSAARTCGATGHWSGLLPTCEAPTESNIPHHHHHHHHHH
The experiment in a line: SPR, antibody captured, E-selectin analyte. On the procedure: as §1, §2, §3

B1: optimized anti-E-selectin antibody 1282 (antibody, human IgG1, kappa, V domains shown)
VH: EVQLVESGGGLVQPGGSLRLSCAASGYAIRSAYMHWVRQAPGKGLEWVARIDPANGNTIYVDSVEGRFTISADNAKNSAYLQMNSLRAEDTAVYYCAMDLYSTSEYWGQGTLVTVSS
VL: DIQMTQSPSSLSASVGDRVTITCKTSQNIERYLNWYQQKPGKAPKLLIYAASSLQSGVPSRFSGSGSGTDFTLTISSLQPEDFATYFCLQDNAWPLTFGQGTKVEIKR
notes: effector-null human IgG1, kappa
In experiment [1], B1 showed a Kd of 78.3 nM, a koff of 0.0176 s⁻¹, a kon of 227000 M⁻¹ s⁻¹ and a t½ of 39.4 s. In experiment [2], this molecule came in with a Kd of 70.3 nM, a dissociation rate constant (koff) of 0.0141 s⁻¹, a kon of 201000 M⁻¹ s⁻¹ and a t½ of 49.3 s.

B2: optimized anti-E-selectin antibody 1444 (antibody, human IgG1, kappa, V domains shown)
VH: EVQLVESGGGLVQPGGSLRLSCAASGYAIRSAYMHWVRQAPGKGLEWVARIDPANGNTIYVDSVTGRFTISADNAKNSAYLQMNSLRAEDTAVYYCAMDLYSTSEYWGQGTLVTVSS
VL: DIQMTQSPSSLSASVGDRVTITCKTSQNIERYLNWYQQKPGKAPKLLIYAASSLQSGVPSRFSGSGSGTDFTLTISSLQPEDFATYFCLQDNAWPLTFGQGTKVEIKR
notes: as for B1
For the molecule B2, in experiment [1], the Kd stood at 81.5 nM, the koff was determined as 0.0171 s⁻¹, the kon stood at 211000 M⁻¹ s⁻¹ and the t½ is 40.5 s. Moreover, in experiment [2], the dissociation constant Kd turned out to be 61.8 nM, the off-rate constant (koff) came to 0.0163 s⁻¹, the kon worked out at 264000 M⁻¹ s⁻¹ and the t½ amounted to 42.7 s.

B3: optimized anti-E-selectin antibody 1448 (antibody, human IgG1, kappa, V domains shown)
VH: EVQLVESGGGLVQPGGSLRLSCAASGYAIRSAYMHWVRQAPGKGLEWVARIDPANGNTIYVDSVKERFTISADNAKNSAYLQMNSLRAEDTAVYYCAMDLYSTSEYWGQGTLVTVSS
VL: DIQMTQSPSSLSASVGDRVTITCKTSQNIERYLNWYQQKPGKAPKLLIYAASSLQSGVPSRFSGSGSGTDFTLTISSLQPEDFATYFCLQDNAWPLTFGQGTKVEIKR
notes: as for B1
For B3, in experiment [1], the Kd was 67.8 nM, the koff was determined as 0.015 s⁻¹, the association rate constant (kon) was 222000 M⁻¹ s⁻¹ and the t½ worked out at 46.2 s. In experiment [2], the Kd turned out to be 60.5 nM, the koff worked out at 0.0126 s⁻¹, the on-rate (kon) was 210000 M⁻¹ s⁻¹ and the t½ was 55 s.

B4: optimized anti-E-selectin antibody 1284 (antibody, human IgG1, kappa, V domains shown)
VH: EVQLVESGGGLVQPGGSLRLSCAASGYAIRSAYMHWVRQAPGKGLEWVARIDPANGNTIYVESVEGRFTISADNAKNSAYLQMNSLRAEDTAVYYCAMDLYSTSEYWGQGTLVTVSS
VL: DIQMTQSPSSLSASVGDRVTITCKTSQNIERYLNWYQQKPGKAPKLLIYAASSLQSGVPSRFSGSGSGTDFTLTISSLQPEDFATYFCLQDNAWPLTFGQGTKVEIKR
notes: as for B1
In experiment [1], B4 had a dissociation constant (Kd) of 76.5 nM, a koff of 0.018 s⁻¹, a kon of 236000 M⁻¹ s⁻¹ and a t½ of 38.5 s. Also, in experiment [2], binding was put at a Kd of 65.2 nM, the koff was 0.0145 s⁻¹, the on-rate (kon) amounted to 222000 M⁻¹ s⁻¹ and the t½ was determined as 48 s.
